Biological target: human RET on cells (MCF7/SRE-Luc; HEK293/hGFRα3/hRET/SRE-Luc; HEK293/hGFRα1/hRET/SRE-Luc) (human), P07949
Assay: cell-based or functional assay

Row | 293/hGFRα3/hRET SRE-luc % Blocking [%] | 293/hGFRα3/hRET/SRE-Luc IC50 [nM] | MCF7/SRE-Luc % Activation [%] | MCF7/SRE-Luc Avg % Blocking [%] | MCF7/SRE-luc Avg. IC50 [nM] | Internalization (% H4H8087P), HEK293/hGFRa1/hRET/SRE-Luc cells, 37 C [%] | luciferase activity in MCF7/SRE-Luc, % of the levels observed with GDNF [%] | Binder
1 | 91 | 11.8 | 5 | 78 | 44 | – | – | H4H8046P (antibody, human IgG4, V domains shown) VH: QVQLVQSRDEVKKPGASVKVSCKASGYTFTTYGISWVRQAPGQGLEWMGWINTYNGDTNYAQKVQDRVIMTTDTSTSTAYMELRSLRSDDTAVYFCAGARPLGGRRAFDIWGQGTMVTVSS VL: DIQMTQSPSSLSASVGDRVTITCRASQGISHYLAWYQQKPGKVPKLLIYAASTLQSGVPSRFSGSGSGTDFTLTISSLQPEDVATYYCQKYNSVPWTFGQGTKVEIK
2 | 98 | 4 | 0 | 100 | 2.6 | – | – | H2M7086N (antibody, mouse IgG2, V domains shown) VH: QVQLVESGGGVVQPGRSLRLSCVVSGFTFSNYGMHWVRQGPGRGLEWLALIWYDGSDKYYAESVRGRFTISRDNSKNTVYLQMNSLRAEDTAMYYCTRDRIFDYWGQGTLVTVSS VL: AIQMTQSPSSLSASVGDRVTITCRASQDIRNDLGWYQHNPGKAPNLLIYAASTLQIGVPSRFRGSGSGTDFTLTISSLQPEDFATYYCLQDFDYPLSFGGGTKVEIR
3 | 81 | 57 | 0 | 68 | > 100 | – | – | H4H8083P (antibody, human IgG4, V domains shown) VH: QVQLVESGGGVVQPGRSLRLSCAASGFTFNNYVMHWVRQAPGKGLEWVALIWYDGSNKYYADSVKGRFTISRDNSKNALNLQMNSLRAEDTAVYFCARVSIAARNYYYGGLDVWGQGTTVTVSS VL: EIVLTQSPGTLSLSPGERATLSCRASQSVSSTYLAWYQQKPGQAPRLLIYGASSRATGIPDRFSGSGSGTDFTLTISRLEPEDFAVYYCQHYGGSPLTFGGGTKVEIK
4 | 96 | 0.42 | 0 | 69 | 0.14 | – | – | H4H8045P (antibody, human IgG4, V domains shown) VH: EVQLVESGGALVQPGGSLRLSCAASGFTFSNYAMTWVRQAPGMGLEWVSGISSSGASTFYADSVKGRFTISRDNSKNTLYLQMNSLRAEDTAVYYCAKEDYWGWFDYWGQGTLVTVSS VL: DIQLTQSPSFLSASVGDRVTITCWASQDVSSYLAWYQQEPGKAPKVLIYDASTLQSGVPSRFSGSGSGTEFTLTISSLQPEDFAPYYCQQLNSYPYTFGQGTKLEIK
5 | – | – | 0 | 84 | 0.45 | – | – | H4H8071P (antibody, human IgG4, V domains shown) VH: EVQLVESGGGLVQPGGSLRLSCAASGFTFTTYFMSWVRQAPGKGLEWVSGISGSGTSTFYVDSMKGRFTISRDNSKNTLYLQMNSLRVEDTAVYFCAKENTYGHFDFWGQGTLVTVSS VL: DIQLTQSPSFLSASVGDRVTITCWASQDISSHLAWYQQKPGKAPKVLIYDASTLQSGVPSRISGSGSGTEFTLTISSLQPEDFAAYYCQQLDGYPYTFGQGTKLEIK
6 | – | – | 0 | 73 | 2 | – | – | H4H8056P (antibody, human IgG4, V domains shown) VH: QVQLVESGGGVVQPGRSLRLSCAASGFTFRNYGMHWVRQAPGKGLEWVAVKRYDGSDEYFVDSVKGRFTISRDNSKNTLFLQMNSLRVDDTAVYYCARETPITGTTLDYWGQGTLVTVSS VL: DIQMTQSPSSLSASVGDRVTITCRTSQSITNYLNWYQQKPGKAPKLLIYAASRSQSGVPSRFSGSGSGTDFTLTISSLQPEDFATYYCQQSYSTPLTFGGGTKVEIK
7 | – | – | 0 | 85 | 5.4 | 42 | – | H4H8058P (antibody, human IgG4, V domains shown) VH: QVQLVESGGGVGQPGRSLRLSCVASGFTFRNYGMHWVRQAPGKGLDWVAIIGYDGSKEYNVDSVKGRFTISRDNSKNTLYLQMNSLGAEDTAIYYCARESPITGTTFDYWGQGTLVTVSS VL: DIQMTQSPPSLSASVGDRVTITCRASQSIGNYLNWYQQKPGKAPKILIYAASRLQSGVPSRFSGSGSGTDFTLTISSLQPEDFATYYCQQSYSTPLTFGGGTKVEIK
8 | – | – | 0 | 87 | > 100 | – | – | H4H8060P (antibody, human IgG4, V domains shown) VH: QVTLKESGPVLVKPTETLTLTCTVSGFSLSSARMGVSWIRQPPGKALEWLAHIFSTDEKSYSTSLKSRLSISKDTSLSQVVLIMTNMDPVDTATYYCARRTTMAPYYYYYGMDVWGHGTTVTVSS VL: AIQMTQSPASLSASVGDRVTITCRASQGIRNDLGWYQQKPGKAPKLLISAASSLQSGVPSRFSGSGSGTDFTLTISSLQPEDFATYYCLQDYKYPWTFGQGTKVEIK
9 | 93 | 1.5 | 0 | 60 | 0.39 | – | – | H4H8066P (antibody, human IgG4, V domains shown) VH: EVQLVESGGGLVQPGGSLRLSCEASGFTFSRYAMTWVRQAPGKGLEWVSGISGSGGSTFYVDSLQGRFTLSRDNSKHTLFLQMNSLRAEDTAIYYCAKENTYGHFDYWGQGTLVTVSS VL: DIQLTQSPSFLSASVGDRVTITCWASQDISTYLAWYQQKPGKAPQVLIYAASSLQYGVPSRFSGSGSGTEFTLTITSLQPEDFATYYCQQLIGYPYIFGQGTKLEIK
10 | – | – | 0 | 100 | 5.2 | 44.9 | – | H4H8062P (antibody, human IgG4, V domains shown) VH: EVQLVESGGGLVQPGGSLRLSCSVSGFIFKNYAMRWVRQAPGKGLEWVSGISGSGGITYYADSVRGRVTISRDNSKNTLDLQMTNLRAEDTAVYYCAKAEYSSSGAYFDYWGQGTLVTVSS VL: DIQMTQSPSSLSASVGDRVTITCRASQSIHNYLNWYLQRPGKAPKLLVYAASSLQSGVPSRFSGRGSGTDFTLTISSLQPEDFATYYCQQSYSAPYSFGQGTKLEIK
11 | 99 | 4.8 | 0 | 91 | 3.8 | 58.2 | – | H4H8067P (antibody, human IgG4, V domains shown) VH: QVQLVESGGGVVQPGRSLRLSCVASGFTFSNYGMHWVRQAPGKGLEWVALIWYDGSNKYFADSVKGRFTISRDNSKRMMFLEMNSLRAEDTAIYYCTRDRLFDFWGQGTLVTVSS VL: AIQMTQSPSSLSASVGDRVSITCRASQDIRHDLGWFHQKPGKAPKLLIYAASTLQSGVPSRFGGSGSGTDFTLTITSLQPEDFGTYYCLQDYNYPATFGQGTRLEIK
12 | 96 | 0.8 | 0 | 90 | 0.15 | 62.8 | – | H4H8079P (antibody, human IgG4, V domains shown) VH: EVQLVESGGGLVKPGGSLRLSCAASGFTFSNAWMSWVRQAPGKGLEWVGRIKSKTDGGTSEYAAPVKGRFTISRDDSKNTLFLQMNSLKSEDAAVYYCTTGRSWSDYFDFWGQGTLVTVSS VL: not shown
13 | 72 | 127 | 47 | 0 | – | – | 50 | H4H8085P (antibody, human IgG4, V domains shown) VH: QVQLVESGGGVVQPGRSLRLSCTASGFTFDNYGMHWVRQAPGKGLEWVAVISYDGSNTFYADSVKGRFTISRDNSKNALYLQMNSLRAEDTAVYYCAKDLEFDILIGYPFDSWGRGTLVTVSS VL: DIQLTQSPSFLSASVGDRVTITCWASQDISRYLAWYQQKPGKAPNLLIYAASTLQSGVPSRFSGSGSGTEFTLTINSLQPEDFATYYCQQLFSYPRTFGQGTKVEIK
14 | 57 | 341 | 0 | 41 | > 100 | – | – | H4H8080P (antibody, human IgG4, V domains shown) VH: EVQLVESGGGLVQSGGSLRLSCVASGFTFSTYAMTWVRQAPGRGLEWVSAISGSGASTYYADSLKGRFTVSRDNSKNTLYLQMNSLRAEDTAVYYCSKDHRNYDSDYDMDVWGQGTTVTVSS VL: DIQMTQSPSSLSASVGDRVTITCRASQGIRNYLGWYQQKPGKAPKRLIYTASSLQSGVPSRFRGSGSGTEFTLTISSLQPEDFATYYCLQHNSYPYTFGQGTKLEIK
15 | 94 | 2.1 | 0 | 100 | 10.4 | – | – | H4H8084P (antibody, human IgG4, V domains shown) VH: QVQLVESGGGVVQPGRSLRLSCEASGFTFRNYGMHWVRQAPGKGLDWVSTIYYDGSDEYYSDSVKGRFTISRDNSKNTLYLQMNSLRAEDTAVYYCARDPPSFRYFDYWGQGTLVTVSS VL: DIQMTQSPSTLSASVGDRVTITCRASQSIRSWLTWYQQKPGKAPKVLIYKASTLERGVPSRFSGSGSGTEFTLTISSLQPEDFATYYCHQYSSYSYTFGQGTKLEIK
16 | 100 | 0.25 | 0 | 100 | 0.25 | 100 | – | H4H8087P (antibody, human IgG4, V domains shown) VH: QVQLVESGGGVVQPGRSLRLSCAASGFSFSSYGMHWVRQAPGKGLEWVAVMWYDGSNEYYADSVKGRFIISRDNSKSTLYLEMNSLRAEDTALYYCAREDWDEGYYYGMDVWGQGTTVTVSS VL: DIQMTQSPSSLFASVGDRVTITCRASQDIRYDLGWYQQKPGKAPKRLIYASSILESGVPSRFSGSGSGTEYTLTISTLQSEDFAIYYCLQHNSFPWTFGQGTKVEIK
17 | – | – | 3 | 74 | 55.7 | – | – | H4H8076P (antibody, human IgG4, V domains shown) VH: QVQLQQSGPGLVKPSQTLSLTCAISGDSVSSNSVAWNWIRQSPSRGLEWLGRTYYRSNWYNTYAVSVKSRITIDPDTSKNQFSLQLNSVTPEDTALYYCARGHRYSGSYFDYWGQGTLVTVSS VL: DIQMTQSPSSLSASVGDRVTITCRASQNINSYFNWYQQKPGKAPKLLIYAASSLQSGVPSRFSGGGSGTDFTLTISSLQPEDFATYYCQQTYTIPWTFGQGTKVEIK
